# T1: DDX20 (UniProt Q9UHI6 1-824)
# T1 construct: also called NP_009135.4
# T1 sequence (looked up): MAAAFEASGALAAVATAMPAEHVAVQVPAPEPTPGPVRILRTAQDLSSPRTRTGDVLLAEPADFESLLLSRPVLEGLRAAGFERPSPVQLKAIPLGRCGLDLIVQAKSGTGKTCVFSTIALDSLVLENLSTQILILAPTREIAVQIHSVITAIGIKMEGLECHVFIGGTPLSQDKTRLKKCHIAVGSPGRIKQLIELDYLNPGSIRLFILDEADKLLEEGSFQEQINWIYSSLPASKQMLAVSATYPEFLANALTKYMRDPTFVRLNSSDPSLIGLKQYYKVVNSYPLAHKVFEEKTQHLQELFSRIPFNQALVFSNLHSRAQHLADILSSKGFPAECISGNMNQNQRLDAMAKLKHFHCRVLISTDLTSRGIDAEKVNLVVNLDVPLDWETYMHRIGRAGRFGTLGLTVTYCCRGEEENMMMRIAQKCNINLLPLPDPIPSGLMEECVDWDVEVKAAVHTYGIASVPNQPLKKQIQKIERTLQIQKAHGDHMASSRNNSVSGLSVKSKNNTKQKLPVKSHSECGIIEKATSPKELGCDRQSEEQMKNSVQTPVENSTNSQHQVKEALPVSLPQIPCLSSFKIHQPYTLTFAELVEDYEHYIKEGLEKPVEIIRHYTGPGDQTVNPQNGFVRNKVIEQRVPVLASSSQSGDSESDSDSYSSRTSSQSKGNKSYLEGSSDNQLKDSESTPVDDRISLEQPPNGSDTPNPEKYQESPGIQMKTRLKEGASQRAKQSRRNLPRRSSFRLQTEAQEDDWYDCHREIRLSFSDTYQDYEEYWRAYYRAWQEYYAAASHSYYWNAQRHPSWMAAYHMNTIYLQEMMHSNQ
# B1: N-terminal FLAG tagged B3GNT2 (enzyme, human, UniProt Q9NY97 1-397, looked up)
# chain: MSVGRRRIKLLGILMMANVFIYFIMEVSKSSSQEKNGKGEVIIPKEKFWKISTPPEAYWNREQEKLNRQYNPILSMLTNQTGEAGRLSNISHLNYCEPDLRVTSVVTGFNNLPDRFKDFLLYLRCRNYSLLIDQPDKCAKKPFLLLAIKSLTPHFARRQAIRESWGQESNAGNQTVVRVFLLGQTPPEDNHPDLSDMLKFESEKHQDILMWNYRDTFFNLSLKEVLFLRWVSTSCPDTEFVFKGDDDVFVNTHHILNYLNSLSKTKAKDLFIGDVIHNAGPHRDKKLKYYIPEVVYSGLYPPYAGGGGFLYSGHLALRLYHITDQVHLYPIDDVYTGMCLQKLGLVPEKHKGFRTFDIEEKNKNNICSYVDLMLVHSRKPQEMIDIWSQLQSAHLKC
# notes: Bait of the co-IP; pulled down with mouse anti-FLAG from cell lysate; also called N-FLAG B3GNT2; N-term FLAG; not shown: FLAG tag at the N-terminus
# B2: N-terminal FLAG tagged B3GNT2 (enzyme, human, UniProt Q9NY97 1-397, looked up)
# chain: B1 chain
# notes: Bait of the co-IP; pulled down from cell lysate with mouse anti-FLAG antibody; also called N-FLAG B3GNT2; N-term FLAG; not shown: N-terminal FLAG tag
# Experiments:
# RPL37A = RPL37A (UniProt P61513 1-92); assay: co-IP, anti-FLAG, N-FLAG B3GNT2 cell lysate, mass spectrometry
# Description: (§1) Cells were plated in 10-cm cell culture dishes and grown to 60-80% confluency. For each condition, two biological replicates were harvested for co-IP. Cells were washed with PBS and 4 mL of lysis buffer (20 mM HEPES, 1% Triton X-100, 150 mM NaCl, 1 mM EDTA, and 10% glycerol) containing protease inhibitor cocktail was added. Cells were scraped and lysate was incubated at 4° C. under rotary agitation for 1 h. Lysate was centrifuged at 14,000×g for 10 min at 4° C. Supernatant was transferred to a new tube and an aliquot was taken as the input. […] For Western blots, 10 μg/mL Chicken Anti-FLAG (Aves labs ET-DY100) and IgY control (R&D Systems AB-101-C) antibodies were biotinylated (Thermo Fisher Scientific 90407) and added to the respective conditions. Lysates with antibodies were incubated at 4° C. under rotary agitation overnight. For each mL of lysate, 50 μL of Pierce Protein A/G Magnetic Beads (Mass spectrometry; Thermo Fisher Scientific 88803) or Pierce Streptavidin Magnetic Beads (Western blot; Thermo Fisher Scientific 88817) was washed twice with lysis buffer. Lysates with antibodies were added to the beads and incubated at 4° C. under rotary agitation for 4 h. Beads were washed with lysis buffer 3 times and resuspended in lysis buffer for storage.
# (§2) Magnetic beads were resuspended in 100 mM Tris pH 7.8, reduced, alkylated and digested with trypsin at 37° ° C. overnight. This solution was subjected to solid phase extraction to concentrate the peptides and remove unwanted reagents followed by injection onto a Shimadzu HPLC with fraction collector. Eight fractions were collected and after concentration were injected on a Waters NanoAcquity HPLC equipped with a self-packed Aeris 3 μm C18 analytical column 0.075 mm by 20 cm, (Phenomenex). Peptides were eluted using standard reverse-phase gradients. The effluent from the column was analyzed using a Thermo Orbitrap Elite mass spectrometer (nanospray configuration) operated in a data dependent manner for 54 minutes. The resulting fragmentation spectra were correlated against the known database using Proteome Discover 1.4 (Thermo Fisher Scientific).
# LIMA1 = biological target: T2, LIMA1 (UniProt Q9UHB6-4 1-760, limits assumed); assay: as above
# T2 construct: also called NP_001107018.1 (+1)
# Description: as §1, §2
# RPS16 = RPS16 (UniProt P62249 2-146); assay: as above
# Description: as §1, §2
# RPS2 = RPS2 (UniProt P15880 2-293); assay: as above
# Description: as §1, §2
# RPS23 = RPS23 (UniProt P62266 2-143); assay: as above
# Description: as §1, §2
# DDX20 = biological target: T1, DDX20; assay: as above
# Description: as §1, §2
# HDGFL2 = biological target: T3, HDGFL2 (human, UniProt Q7Z4V5 1-671); assay: anti-FLAG co-IP from lysate of N-FLAG B3GNT2 cells, mass spectrometry
# T3 construct: also called NP_001001520.1 (+4)
# Description: as §1, §2
# T3 sequence (Q7Z4V5 whole entry): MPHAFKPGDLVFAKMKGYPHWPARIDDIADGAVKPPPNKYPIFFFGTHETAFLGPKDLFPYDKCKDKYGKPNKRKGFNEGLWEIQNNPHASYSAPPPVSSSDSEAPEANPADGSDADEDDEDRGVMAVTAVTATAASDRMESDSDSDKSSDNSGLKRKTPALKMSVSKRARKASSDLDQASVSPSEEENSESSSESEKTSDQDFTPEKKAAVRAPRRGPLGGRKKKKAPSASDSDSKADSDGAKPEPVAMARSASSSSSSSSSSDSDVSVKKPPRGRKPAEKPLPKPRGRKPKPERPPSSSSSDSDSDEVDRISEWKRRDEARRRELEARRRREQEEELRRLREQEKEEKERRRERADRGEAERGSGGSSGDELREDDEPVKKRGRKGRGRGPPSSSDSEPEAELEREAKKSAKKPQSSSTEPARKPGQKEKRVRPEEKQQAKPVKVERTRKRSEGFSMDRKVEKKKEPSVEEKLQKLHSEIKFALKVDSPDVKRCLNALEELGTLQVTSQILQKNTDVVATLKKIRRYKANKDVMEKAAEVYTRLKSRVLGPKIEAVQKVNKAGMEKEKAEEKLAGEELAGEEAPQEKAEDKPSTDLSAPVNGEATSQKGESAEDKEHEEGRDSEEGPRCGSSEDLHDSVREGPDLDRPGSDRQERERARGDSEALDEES
# T2 sequence (Q9UHB6 other isoform, or with tags, fused parts or gaps limits assumed): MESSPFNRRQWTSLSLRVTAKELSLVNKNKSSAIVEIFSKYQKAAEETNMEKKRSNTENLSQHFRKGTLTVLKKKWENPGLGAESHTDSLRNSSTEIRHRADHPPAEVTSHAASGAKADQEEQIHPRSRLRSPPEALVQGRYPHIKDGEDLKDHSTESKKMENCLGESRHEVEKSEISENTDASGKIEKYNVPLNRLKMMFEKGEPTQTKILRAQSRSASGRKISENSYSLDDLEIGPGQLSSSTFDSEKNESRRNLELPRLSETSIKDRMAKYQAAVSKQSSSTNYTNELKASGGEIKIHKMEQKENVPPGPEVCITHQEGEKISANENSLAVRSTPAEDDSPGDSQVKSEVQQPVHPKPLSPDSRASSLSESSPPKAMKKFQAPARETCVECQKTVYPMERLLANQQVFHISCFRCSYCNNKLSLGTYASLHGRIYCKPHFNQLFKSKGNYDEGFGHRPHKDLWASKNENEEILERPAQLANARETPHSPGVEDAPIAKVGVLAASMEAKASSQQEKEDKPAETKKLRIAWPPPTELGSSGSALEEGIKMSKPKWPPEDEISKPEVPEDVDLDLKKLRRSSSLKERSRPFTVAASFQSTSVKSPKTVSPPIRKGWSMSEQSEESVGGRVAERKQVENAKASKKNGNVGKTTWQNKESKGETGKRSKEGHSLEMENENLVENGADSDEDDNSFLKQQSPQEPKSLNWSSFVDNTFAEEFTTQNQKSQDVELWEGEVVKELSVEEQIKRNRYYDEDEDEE
Binder,co-IP mass spectrometry count (RPL37A),co-IP mass spectrometry count (LIMA1),co-IP mass spectrometry count (RPS16),co-IP mass spectrometry count (RPS2),co-IP mass spectrometry count (RPS23),co-IP mass spectrometry count (DDX20),co-IP mass spectrometry count (HDGFL2)
B1,6,4,9,13,9,0,–
B2,–,–,–,–,–,–,0

# From US20240261333A1 (published 2024)
